Test results from PMC2917355, “Characterization of a Temperature-Sensitive Vertebrate Clathrin Heavy Chain Mutant as a Tool to Study Clathrin-Dependent Events In Vivo” (PLoS ONE, 2010).
Changes are numbered by the printed parent chain. Names and notes keep the numbering of the source.

B1: human clathrin heavy chain wild type hub fragment (domain or fragment, UniProt Q00610 1074-1675, looked up)
chain: KFDVNTSAVQVLIEHIGNLDRAYEFAERCNEPAVWSQLAKAQLQKGMVKEAIDSYIKADDPSSYMEVVQAANTSGNWEELVKYLQMARKKARESYVETELIFALAKTNRLAELEEFINGPNNAHIQQVGDRCYDEKMYDAAKLLYNNVSNFGRLASTLVHLGEYQAAVDGARKANSTRTWKEVCFACVDGKEFRLAQMCGLHIVVHADELEELINYYQDRGYFEELITMLEAALGLERAHMGMFTELAILYSKFKPQKMREHLELFWSRVNIPKVLRAAEQAHLWAELVFLYDKYEEYDNAIITMMNHPTDAWKEGQFKDIITKVANVELYYRAIQFYLEFKPLLLNDLLMVLSPRLDHTRAVNYFSKVKQLPLVKPYLRSVQNHNNKSVNESLNNLFITEEDYQALRTSIDAYDNFDNISLAQRLEKHELIEFRRIAAYLFKGNNRWKQSVELCKKDSLYKDAMQYASESKDTELAEELLQWFLQEEKRECFGACLFTCYDLLRPDVVLETAWRHNIMDFAMPYFIQVMKEYLTKVDKLDASESLRKEEEQATETQPIVYGQPQLMLTAGPSVAVPPQAPFGYGYTAPPYGQPQPGFGYSM
notes: Clathrin heavy chain, human, C-terminal 'hub' fragment involved in trimerization; The PCR primers encode KFDVNTS... at the start (after a BamHI site) and ...GFGYSM followed by the stop codon at the end (before a HindIII site); Cloned in pET28a between BamHI and HindIII with its own stop codon, so the His tag is probably N-terminal (surmised); also called clathrin-hub fragment; hub fragment (wild …)
B2: human clathrin heavy chain TS-hub fragment (E1584K) (domain or fragment, UniProt Q00610 1074-1675, looked up)
chain: B1 chain with E511K
notes: Clathrin heavy chain, human, C-terminal 'hub' fragment amplified from the TS-clathrin (E1584K) cDNA; The PCR primers encode KFDVNTS... at the start and ...GFGYSM followed by the stop codon at the end; Same construct as m1 but with the temperature-sensitive point mutation E1584K. pET28a, so the His tag is probably N-terminal (surmised); also called clathrin hub fragment TS-mutant; pET28a human …

Target: the molecule itself
Assay: cross-linking; 1 µM clathrin hub fragment (wild type or TS-mutant) in PBS with 10 mg/l BS3 for 5 min at temperatures from 26 to 47°C; SDS-PAGE with silver stain or anti-His-tag Western blot

Protein | binding result
B1 | binds
B2 | binds
